Assay [1] deals with membrane of human CD14+ monocytes isolated from the peripheral blood of a healthy subject. In words: flow cytometry on human monocytes, AF647 label, 37 C. (Flow cytometry measures light scatter and fluorescence of single cells or particles in a stream.)
The target in assay [2] is membrane of human macrophages differentiated in vitro in the presence of M-CSF from CD14+ monocytes. In words: flow cytometry on human macrophages, AF647 label, 37 C.

Regarding “non-specific antibody corresponding to an isotype control coupled to the Alexa Fluor (AF) 647 fluorochrome”, in assay [1], the MFI was found to be 265 MFI and the Ratio (MFI against that of the isotype control) was determined as 1. In assay [2], the MFI was 1640 MFI and the Ratio (MFI against that of the isotype control) stood at 1.

These data come from patent US20260091122A1.
